Measured values from the nanobody polyreactivity screen of Harvey et al. (2022).

Assay: yeast display, Sf9 membrane polyspecificity reagent, FACS + sequencing; frameworks hold sequencing errors
Procedure, shortened: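 Sorting gates, low and high (top ~1%), were placed on anti-HA fluorescence to track expression and on streptavidin fluorescence to track reagent binding. A clone's polyreactivity label is taken from the gate it came out of. The reagent was 10% biotinylated, detergent-solubilized Sf9 membrane, applied for 1 hour at 4 °C to galactose-induced yeast display cells.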

| Sequence | polyreactivity (PSR sort gate) |
| --- | --- |
| QVQLVESAGGLVQAGGSLRLSCAASGLIIYYYAMGWYRPAPGKERELVAAISGSSGASTYYADSVKGRFTISRDNAKNTVYLQMNSLKPEDTAVYYCNADWARLWIRSTEFDYWGQGTQVTVSS | low polyreactivity |
| QVQLVESGGGLVQAGGSLRLSCAASGRIFTIYVMGWYRPAPGKERELVATITYSSGSTSYADSVKGRFTISRDNAKNTVYLQMNSLKPEDTAVYYCATDIHSVHNNRDKHDYDYWGQGTQVSVSS | low polyreactivity |
| QVQLVESGGGLVQAGGSLRLSCAASGRIFARNAMGWYRQAPGKERELVATIRVGGGSTYYADSVKGRFTISRDNAKNTVYLQMNSLKPEDTAVYSCAVRQLYSYPGDRRGYYWGQGTQVTVSS | low polyreactivity |
| QVQLVESGGGLVQAGGSLRLSCAASRSTFEIYAMGWYRPAPGKERELFAAISSGGSTNYADSVKGRFTISRDNAKNTVYLQMKSLITEDTAVYYCVYAIQFYYWGQGTQVTVSS | low polyreactivity |
| QVQLVESGGGLVQAGGSLRLSCAASGSTFHKYTMGWYRQAPGKEREFVAAITRNGGTTSYADSVKGRFTISRDNAKNTVYLQMNSLKPEDTAVYYCAVKWRRQINYDYWGQGTQVTVSS | high polyreactivity |
| QVQLVESGGGLVQAGGSLRLSCAASGLIFRRYAMGWYRQAPGKERELVAAINLSGGSTYYADSVKGRFTISRDNAKNTVYLQMNSLKPEDTAVYYCNAVSVYSLPRVGGRYDYWGQGTQVTVSS | high polyreactivity |
| QVQLVESGGGLVQAGGSLRLSCAASGRTLYRYAMGWYRQAPGKERELVAAIRSGGRTNYSDSVKGRFTISRDNAKNTVYLQMNSLKPEDTAVYYCAARTLRYPSTYDYWGQGTQVTVSS | high polyreactivity |
| QVQLVESGGGLVQAGGILRLSCAASGRTFYSNAMGWYRQAPGKARELVAAISRSGGRTYYADSVKGRFTISRDNAKISVYLQMNSLKTEDTAVYYCNKVRQNSSMDYWGQGTQVTVSS | high polyreactivity |
| QVQLVESGGGLVQAGGSLPLSCAASGSIFMTYAIGWYRQAPGKERELVAAIRDSGDRTYYADSVKGRFTISRDNAKNTVYLQINSLKPEDTAVYYCNARWQEALKYDYWGQGTQVTVSS | low polyreactivity |
| QVQLVESGGGLVQAGGSLRLSCAASGRTFYWNAMGWSRQAPGKERELVASINCGGSTYYADSVKGRFTISRDNAKNTVYLQMNSLKPEGTAVYYCNAESYEFHRAWGDYDYWGQGTQVTVSS | low polyreactivity |
| QVQLVESGGALVQAGGSLRLSCAASGSIFSEYAMGWYRQAPGKERELVAAISRSGGTTYYADSVKGRFTISRDNAKNTVYLQMNSLKPEDTAVYYCAARYFRGSYPMGYWGQGTQVTVSS | high polyreactivity |
| QVQLVESGGGLVQAGGSLRLSCAASGRIFYFYAMGWYRQAPGKERELVAAITGSAGGTYYADSVKGRFTISRDNAKNTVYLQMNSLKPEDTAVYYCNAGSTRYWRSRYDYWGQGTQVTVSS | low polyreactivity |
| QVQLVESGGGLVQAGGSLRLSCAASGSIFGYNSMGWDRQAAGKERELVAAIYSGGNTYYADSVKGRFTISRDNAKNTVYLQMNSLKPEDTAVYYCAADGYDDSTSRWYEYWGQGSQVTVSS | low polyreactivity |
| QVQVVESGGGLVQAGCSLRLSCAASGSTFQANDMGLYRQAPGKERELVAAISTGGSSTYYADSVKGRFTISRDNEKNTFFLQMNSLKPEDTAVYYCAVDGLGGREGYWGQGTQVTVSS | high polyreactivity |
| QVQLVESGGGLVQAGGSLRLSCAAYGRTISRNTMAWYRQAPGKERELVAGITYGGDRTYYADSVKGRFTISRDNAKNTVYLQMNSLKPEDTSVYYCAAPWYWKGLRDYWGQGTQVTVSS | low polyreactivity |
| QVQLQESGGGLVQAGGSLRLSCAASGYISSWYPMGSYRQAPGKEREFVATIAPGATTYYADSVKGRFTISRDYAKNTVYLQMNSLKPEDTAVYYCAAGPENNDFYSYGGQGTQVTVSS | low polyreactivity |
| QVQLVESGGGLVQAGGSLRLSCAASGRTFTYYAMGWYRQGPGKESELVAAITSGGRTYYADSVKGRFTISRDNAKNTVYLELNSLKPDDTAVYYCADRRIRDYYRSYDYWGQGTQGTVSS | high polyreactivity |
| QVQLVESGGGLVQAGVSLRLSCAASGRTFEDKAMGSDRQAPGKERELVAAISSDGSTNYADSVKGRFTISRDNAKYTVYLQKYSLKPVDTAVYYCNSTVYWPYDWSTSDYWGQGTQVTVSS | low polyreactivity |
| QVQLVESGGGLVQAGRSLRLSCPASGSTFYTNHMGWYRQAPGKERELVAAITSAGNTNYADSVKGRFTISRDNAKNTVYLQMNSLKPEDTAVYYYYYYQYDYWGQGTQVTVSS | low polyreactivity |
| QVQLVESGGGLVQAGGSLRLSCAASGSIFHYYTMGWYRQAPGKERELVAGISRSGTSTFYADSVKGRFTISRDNAKKTVYLQMNSLKPEDTAVSYCNAYSPGSYYYWPYDYWGQGTQVTVSS | high polyreactivity |
| QVQLVESGGGLVQAGGSLRLSCAASGRTFEIYAMGWYRQAPGKERDLVAAITSGGSTYYADSEKGRFTISRDNAKNTVYLQMNSLKPEDTAVYYCAADSSLYGVIRDFDYWGQGTQVTVSS | high polyreactivity |

| Sequence | polyreactivity (PSR sort gate) |
| --- | --- |
| QVQLVESGGGLVQAGGSLRLSCAASGSTFDHYAMGWYRQAPGKERELVASITLSGGSTYYADSVKGRFTISRDNAKNTVYLQMNSLKPEDTAVYYCNVDYPFYQYGYYYNYNYWGQGTQVTVSS | low polyreactivity |
| QVHLVESGGGLVQAGGSLRLSCAASGITLGYYVMGWYRQAPGKERELVAAISSSGGRTYYADSVKGRFTISRDNAKNTVYLQMNSLKPEDTAVYYCSADLGRGIYDYWGQGTQVTVSS | low polyreactivity |
| QVQLVESGGGLVQAGGSLRLSCAASGFILGYYAMGWYRQAPGKERELVAAISWNGGRTYYADSVKGRFTISRDNAKNTVYLQMNSLKPEDTAVYYCAVVATVIPWPYDYWGQGTQVTVSS | high polyreactivity |
| QGQLVESGGGLVQAGGSLRLSCAASGRIFKYNAMGWYRQAPGKEMELVAVITSGGSTYYADSVKGRFTISRDNAKNTVYLQMNSLKPEDTAVYYCAKKYYIVHKFDYWGQGTQVTVSS | low polyreactivity |
| QVQLVESGGGLVQAGGSLRLSCAASGRTFKYYALGWYRQAPGKERELVAAISNGGRTNYADSVKGRFTISRDNAKNTVYLQMNSLKPEDTAFYYCAKRTFYFSDYDYWGQGTQVTVSS | high polyreactivity |
| QVQLVESGGGLVQAGGSLRLSCAASGFTFYKYVMGWYRQAPGKERELVAAITTSGGSTYYADSVKGRFTISRDNAKNTVYLQMNSLKPEDTAVYYCNARSLHTSEGDYWGQGTQVTVSS | low polyreactivity |
| QVQLVESGGGLVQAGGSLRLSCAASGRTFYGYAMGWYRQAPGKERELVASISRDGSTNYADSVKGRFTISRDNAKNTVYLQMNSLKPEDTAVYYCAADWVYYRYWPYVGYDYWGQGTQVTVSS | low polyreactivity |
| QVQLVESGGGLVQAGGSLRLSCAASGITIWGYTMGWYRQAPGKERELVAAITSTGSTYYADSVKGRFTISRDNAKNHVYFQMNSQKPEDTSVYYCAATRGSSDYYYWGQGTQVTVSS | low polyreactivity |
| QVQLVESGGGLVQAGGSLRLSCAASGFTFYHYAMGWYRPAPGKERELVAAITWSGGDTYYADSEKGRFTSSRDNAKNTVYLQMNSLKPEDTAVYYCNADDPPGAPYYDSFDYRGDYWGQGTQRTVSS | low polyreactivity |
| QVQLVESGGGLVQAGGSLRLSCAASGSTFHYYAMGWYRQAPGKERELVAAISKRGTSTYYADSVKGRFTISRDNAKNTVYLQMNSLKPEDTSVYYCNRYPIRYKHRGLDYWGHGTQVTVSS | high polyreactivity |
| QVQLVESGGGLVQAGGSLRLSCAASGYIFHRYVMGWYRQAPGKERELVASISWSGGSTYYADSVKGRFTISRDNAKNTVYLQMTSLKPEDTAVYYCGALSPYRRGYYWGQGTQVTVSS | high polyreactivity |
| QVQLVESGGGLVQAGGSLRLSCAASGRIFGGYAMGWYRQAPGKEREFVAAITTSGGSTYYADSVKGRFTISRDNAKNTVYFQMNSLKPEDTAVYYCAARGYIPARFVSLVYRYYYWGQGTQVTVSS | high polyreactivity |
| QVQLEESGGGLVQAGGSLRLSCAASGFIFGRNAMGWYRQAPGKERELVAAITRSGGSTYYADSVKGRFTISRDNAKNTVYLQMNSLKPEDTAVYYCAKGVFTWGVFRVGIRDDYWGQGTQVTVSS | high polyreactivity |
| QVQLVESGGGLVQAGGSLRLTCAASGNIFKVYAMGWSRQAPGKERELVAAITSGGGTKYADSVKGRFTISRDNAKNTVYLQMNSLKPEDTAVYYCAARFKYDVAKRYGYWGQGTQVTVSS | high polyreactivity |
| QVQLVESGGGLVQAGGSLRLSCAASGSTFILYAMGCYIQAPGKERELVAAITASGGSTYADSVKGRFTISRDNSKNTVYLQMNSLKPEDSAVYYCAARRWSSKYRKYDYWGQGTQVTVSS | high polyreactivity |
| QVQLVESGGGLVQAGGSLRLSCAASGSTLNYYAMGWYRQAPGKERELVATIDKSGGSTRYADSVKGRFTISRDNAKNTVYLQMNSLKPEDTAVYYCAVDSPYQHDDYWGQGTQVTVSS | low polyreactivity |
| QVQLVESGGGLVQAGGSLRLSCAASGSTFYTNAMGWYRQAPGKERELVASISSGGRTYYADSVKGRFTISRDNAKNTVYLQMNSLKPEDTAVYYCAKRAVLARGDYWGQGTQVTVSS | low polyreactivity |
| QVQLVESGGGLVQAGGSLRLSCAASGSTFYRNAMGWYRQAPGKERELVAAITWSGGTTYYADSVKGRFTISRDNAKNTVYLQMNSLKPEDTAVYYCAARFILAPRRGYNAYKYYYWGQGTQVTVSS | high polyreactivity |
| QVQLVESGGGLLQAGGSLRLSSAASGRTFSTNAMGWYRQAPGKERELVAAITSRGGSTYYADSVKGRFTISRDNAKNTVYLQMNSLKPEDTAVYYCAAGWLPKYGYWGQGTQVTVSS | low polyreactivity |
| QVQLVESGGGLVQAGGSLRLSCAASGFISRYAMGLYRQAPGKERELVAAINRSGGRTYYADSVKGRFTISRDNAKNTVYLQMNSLKPEDTAVYYCAAERSSSYTYDFWGQGTQVTVSS | high polyreactivity |
